The DeepSol protein solubility set

test: soluble on expression in E. coli; label from the status in PepcDB or PDB records

Soluble on expression in E. coli, not soluble:
MGLSHKFQVKQFVEISPYSQSRLRHEQPQTPIHSDITTYHCHRGQFDIVAGGLPCQGTSNAGNRQGLDDPRSALWAEQFRIIESDRPAIALIENPTGLLYRGLEQIICDLDSIGYMGEWNCISAQQVGLPHQRKRIFIIAYSNGLFNQVVPAPWSNQIGNHITQVRLSLETRSYQPGISKVASRIPIGVAKNIPGNYDARRAYGLSCSPRQAAVAWKRIDYLCSLLEHHHHHH
MAHHHHHHMSITSRFIGGVKHLLKGGSMKYLAAGEPYCPFGEAFGLTILPEYILEDDASNLRKGYVDVYTRASDRIILNDGRFQLPPLPPASFMPLLERLEQDNVVPKSWLNNQTANLYEPGDFIRAHIDNLFVYDDIFAICSLGSNCLLRFVHVQNGEELDVMVPDRSVYIMSGPARYVYFHMVLPVEAQRFSLVFRRSIMESDGGF
MGSDKIHHHHHHMPIAIYQGHHHSLAPADINIVIDVIRAFTVAHYAFIGGAKEILLVRTADEAFALKDTYPDYVLTGEEKGVGISGFDLDNSPKRMAGQNMTDKSLIQKTTNGVTAALGALNAKHLFVTGFSNAKTTAQHVKKLVANDCVINIVASHPSGDDDMACAEYIKGIIEGTNVVTAAEAIERIKGSSVAEKFFDCRQPLFDSEDIVYCTKELTGDFVMKVKQDGEVPTIERVII
MGSDKIHHHHHHMAQPGKILKEQKYDRQLRLWGDHGQEALESAHVCLINATATGTEILKNLVLPGIGSFTIIDGNLVSGEDAGNNFFLQKSSIGKNRAQAAMEFLQELNSDVSGSFVEESPENLLDNDPSFFCRFTIVVATQLLESTLLRLADVLWNSQIPLLICRTYGLVGYMRIIIKEHPVIESHPDNALEDLRLDKPFPELREHLQSYDLDHMEKKDHSHTPWIVIIAKYLAQWYNETNGRIPKSYKEKEDFRDLIRQGILKNENGAPEDEENFEEAIKNVNTALNTTQIPSSIEDIFNDDRCINITKQTPTFWILARALKEFVAKEGQGNLPVRGTIPDMIADSNKYIKLQNVYREKAKKDAAAVGNHVAKLLQSVGQAPESISEKELKLLCSNSAFLRVVRCRSLAEEYGLDTVNKDEIISSMDNPDNEIVLYLMLRAVDRFHKQHGRYPGVSNYQVEEDIGKLKSCLTGFLQEYGLSVMVKDDYVHEFCRYGAAEPHTIAAFLGGAAAQEVIKIITKQFVIFNNTYIYSGMSQTSATFQL
MAHHHHHHMTILSLHGRNGADAQKWFESGLLPFPGGQKSFEMVSVMPALVYHHCMLYWAKLGCAALLQEGSVEMTGKAGSETLMFVVRNICCIQIAESPRCLPNWRLLDRVLDELLKRLDFVANCEDGVWSFASTTMRRMQCYLRSNIIRYLEVRDRPLEGQCGLLRYRGAFDCAINGVNSSGASGMGGCQTTDEVHVEVLSAETLRSAVQVMCGCDGVKVPCGDSSGGVKDGADALADLELEEFFCRYFLCSAPAAFDQPTKPTVRE
MRLVIARCSVDYIGRLEAHLPMADRLLMVKADGSVSIHADDRAYKPLNWMTPPCTLTETTHEESETGESIPLWIVENKKGEQLRITIEALHSDMYYDLGEDPGLQKDGVEAHLQELLAEHIETLGDGYSLVRREYPTPIGPVDILCRDDKGGSVAVEIKRRGGIDGVEQLSRYLELLNRDDLLAPVAGVFAAQHIKPQARTLAEDRGIRCVTLDYDSLRGIESTELRLF
MGSDKIHHHHHHMTQPTLPPPPRTRFTVSDFNRMGGSVGFNYRLPGQEGGGTGIENLCIAEGRVEECEIRPGITLIVSDVHVYHHYESTSVMTPRFSAIVMLQGQARARLDKQDDVRLAAQSGLNALYGDTVAMTGVHPAGQRLRSVNLSVTAPEAADDEYTSEIIWKLMQSSAPRLRRWPVPHHLLLSIEHLLECDWDQPLRNMVREGVGTQLLAHALAALQHAPVTHRGLTQRDRQLLERVRERLHEAPGEDHTLDDLARLACMSPSTLRAKFHAVYHRSVFSWLRERRLEVAREQLARGWSVQQAAHFVGYRHATNFATAFRERYGVAPSQLG

Soluble on expression in E. coli, soluble:
GSSHCRFYENKYPEIDDIVMVNVQQIAEMGAYVKLLEYDNIEGMILLSELSRRRIRSIQKLIRVGKNDVAVVLRVDKEKGYIDLSKRRVSSEDIIKCEEKYQKSKTVHSILRYCAEKFQIPLEELYKTIAWPLSRKFGHAYEAFKLSIIDETVWEGIEPPSKDVLDELKNYISKR
MSLTNYKVVVLDMDDTLLNSDNVISEETANYLTAIQDEGYYVVLASGRPTEGMIPTARDLKLPEHHSYIISYNGSKTINMTNEEVEVSKSIGKQDFDEIVDYCRDRGFFVLTYHDGQIIYDSEHEYMNIEAELTGLPMKRVDDIKAYIQGDVPKVMGVDYVANITEARIDLNGVFNDNVDATTSKPFFLEFMAKDVSKGNAIKALCHKLGYSVDQVIAFGDSMNDKSMFEVAGLAIAMGNASDELKQYADEVTLDHNENGIPHALKKLLEGHHHHHH
MSKQQIGVVGMAVMGRNLALNIESRGYTVSIFNRSREKTEEVIAENPGKKLVPYYTVKEFVESLETPRRILLMVKAGAGTDAAIDSLKPYLDKGDIIIDGGNTFFQDTIRRNRELSAEGFNFIGTGVSGGEEGALKGPSIMPGGQKEAYELVAPILTKIAAVAEDGEPCVTYIGADGAGHYVKMVHNGIEYGDMQLIAEAYSLLKGGLNLTNEELAQTFTEWNNGELSSYLIDITKDIFTKKDEDGNYLVDVILDEAANKGTGKWTSQSALDLGEPLSLITESVFARYISSLKDQRVAASKVLSGPQAQPAGDKAEFIEKVRRALYLGKIVSYAQGFSQLRAASEEYNWDLNYGEIAKIFRAGCIIRAQFLQKITDAYAENPQIANLLLAPYFKQIADDYQQALRDVVAYAVQNGIPVPTFSAAVAYYDSYRAAVLPANLIQAQRDYFGAHTYKRIDKEGVFHTEWLD
MSLELYAASYILPIASPPIPGGAVAVHDGCIVETGTLAELRSRHSGPVHDFPGCAILPGLVNAHTHLELTHFPSWKIRKGIDYSPRTYVDWIIQVIKIRRALSPQELELSVREGLRICLEAGTTAIGEILTDRSLIPLYADSGLRGRLLFEAIGHDPVRNAQLVEELDAAIASFSGGSFLPGISPHAPHTVAEHLHQDVYRLAYERNVPRVIHLAESREESDFFFDSSGKIAEFLYPHVRWESYLPAPRRTTATAWLDGLGVLNGTISAVHCVHLTPSDAEILAKRGVGVVLCPRSNDKLAVGRAPVVLLKRLGVPLALGTDSLASNDSLSLWDEMRYLLDTFPGIFTPTEALSMTTIGSARQLALADRTGSLDKGKHADFLVMKLPGRNGSGEALHEALIHSGEILQVFLAGNLVVSREAFSEGHHHHHH
MKKTFEKVYHLKLSIKGITPQIWRRIQVPENYTFLDLHKAIQAVMDWEDYHLHEFEMVNPKTGMLDKIGAEGDDFDAFGGPLVSEKKAKLSDYFTLENKEALYTYDFGDNWQVKVRLEKILPRKEGVEYPICTAGKRAAVPEDSGGVWGYEEMLEVLKDSEHEEYEDTVLWLGDDFDPEYFDPKDVSF
MSLRISILQNNNKEVEAVKSEYESKLSKIQNDLDQQTIYANTAQNNYEQELQKHADVSKTISELREQLHTYKGQVKTLNLSRDQLENALKENEKSWSSQKESLLEQLDLSNSRIEDLSSQNKLLYDQIQIYTAADKEVNNSTNGPGLNNILITLRRERDILDTKVTVAERDAKMLRQKISLMDVELQDARTKLDNSRVEKENHSSIIQQHDDIMEKLNQLNLLRESNITLRNELENNNNKKKELQSELDKLKQNVAPIESELTALKYSMQEKEQELKLAKEEVHRWKKRSQDILEKHEQLSSSDYEKLESEIENLKEELENKERQGAEAEEKFNRLRRQAQERLKTSKLSQDSLTEQVNSLRDAKNVLENSLSEANARIEELQNAKVAQGNNQLEAIRKLQEDAEKASRELQAKLEESTTSYESTINGLNEEITTLKEEIEKQRQIQQQLQATSANEQNDLSNIVESMKKSFEEDKIKFIKEKTQEVNEKILEAQERLNQPSNINMEEIKKKWESEHEQEVSQKIREAEEALKKRIRLPTEEKINKIIERKKEELEKEFEEKVEERIKSMEQSGEIDVVLRKQLEAKVQEKQKELENEYNKKLQEELKDVPHSSHISDDERDKLRAEIESRLREEFNNELQAIKKKSFDEGKQQAMMKTTLLERKLAKMESQLSETKQSAESPPKSVNNVQNPLLGLPRKIEENSNSPFNPLLSGEKLLKLNSKSSSGGFNPFTSPSPNKHLQNDNDKRESLANKTDPPTHLEPSFNIPASRGLISSSSTLSTDTNDEELTSNNPAQKDSSNRNVQSEEDTEKKKEGEPVKRGEAIEEQTKSNKRPIDEVGELKNDEDDTTENINESKKIKTEDEEEKETDKVNDENSIEGHHHHHH
MSLGVLFSPPPASAYDGVEFLEFAVDEAVGARLGNWLKRLGFAEAGKHRSKEVQLLRQGDINIVLNAEPYSFGHNFFEAHGPSLCATALRVKDQQAALKRATAFRGQPFRGLVGPNECEVPAVRAPDGSLLYLVEQGTAGHTLYDTDFSLDNNATATGGLRRIDHMALALPAESLDSWVLFYKSLFDFAADDEVVLPDPYGLVKSRALRSQCGTLRLPLNISENRNTAIAHALSSYRGSGVHHIAFDCDDIFREVARAKLAGVPLLEIPLNYYDDLAARFDFDDEFLSELAYYNVLYDRDAQGGELFHVYTEPFEERFFFEIIQRKAGYAGYGAANVAVRLAAMAKARSGAARKEGHHHHHH
MKLLSTYRLQPMKFSEIRNRLDYFVELGVTHLYLSPVLKARPGSTHGYDVVDYNTINDELGGEEEYIRLIDEAKSKGLGIIQDIVPNHMAVHHTNWRLMDVLKKGRHSRYYNYFDFYEEEEKIRIPILGDRNFKITYVNDEPYLDYYGNLFPINDEGRNYLNDIEKLLKVQYYELVDWRDYPSYRRFFAVNELIAVRQELEWVFEDSHSKILSFEVDGYRIDHIDGLFKPEEYLRRLKNKIGNKHIFVEKILSIGEKLRWDFIDGTTGYDFLNYSNLLFTDNEDKMTEIYKNILDIDLDELVKETKKKIIDTLFKHDIERISMMLGVNYEEIKEFLSCLKVYRTYITENDFRDEEIIRNCSQKVYESMKKNVTAFMKLQQYMPAVFAKAYEDTVLFIYNRLISLNEVGSDLHYYSISCDKFHEFNLKRVGTLSFNATSTHDTKFSEDVRMRISAISEIPDEWAKKVNEWHNILNPNIDKNDEYRLYQTIVGSFDGFNNEYKERLKAHMIKALREAKVHTDWVNVNTEYEKKMTYLIDKMFNNEKFMESFLEFESKIDKMGKVKSLSLVALKITSPGVADFYQGLENFRYLLTDPDNRRPVVFSELPKRYEEGLFNNGRIKAYVTKVLLNLRKSMKDFFINSEYKPLKLQKGLCGFMRGDKVLVIVKTLNRDYDIEIDGEYTDVITDETVRGRVKVDKLPLILVK
MSLEGFIEGSSLTVLNRNFYFNRDNRDSTAPTYNSGKGNTNGYSEAWAHAIISKFNSGFTQGTVGFGVDAFAMIGLKLDTGDGRNGGRSSFDVLPVDNKGEARDEYTKVGGAAKVRLFDTIVKVGDVFPSTPVVASGDSRLLPESFRGVTVENTSIQGLTLQGGRLHAMSQPVSSNLNDNFVTFYGGPVNSPWIGYGGGDYSINDNWTVSVYASQLKDVWNQYYAGTSVVYPLSDDLALIGGFNYYKAVDEGKKRLGEFDNNIWSAKVGVRYGAHTLALSHQRNNGDDDFDYLRQSDSIFVDNSIQYSDFNSPKERSWMLRYDLNFTSYGIPGLTFMTRYARGSGADYSNANQFYMRTDDNGNPLDNQKRWERDVEVKYVVQTGPAKDLSFRLRQATTRATAFESDLDETRVIIEYPLSILEGHHHHHH
